Assay results reported in the DeepSol protein solubility set.

assay: soluble on expression in E. coli; label from the status in PepcDB or PDB records

Sequence | soluble on expression in E. coli
MGSDKIHHHHHHMLYSFSRLVYRILTVVGVLDGRAAYKRRIQLTGRSTYIVSLPKEWVETWRLGRGSEVTLEVMPDGSLKIAPSASERPARRDRRVIDLRGKELDLSFVIKSVIASYLAGYDEVLLLFGDGSVDAVSKIRSIVESNILGFNVLEEGPGYIVFVSVVDHRSMEFSRALSRMARIAAEMIRDVARGLENGDRGLLDLVAERDQLVDKLYLYMARQMTMASSGRLPLKDLGVYSPAEIVHLFLAVKSIERVADHATILSVRVSASLGAGMSVENGLSSLVMEAAEGFSKSVEALIKADAGLAASIAPVLSEYRSRLESMTAQEFLRGGGSLLRYLVIDSMRRITGYSLDIAEAALDISAVREKAKSEGP | not soluble
MGSDKIHHHHHHMTLSFVTRWRDELPETYTALSPTPLNNARLIWHNTELANTLSIPSSLFKNGAGVWGGEALLPGMSPLAQVYSGHQFGVWAGQLGDGRGILLGEQLLADGTTMDWHLKGAGLTPYSRMGDGRAVLRSTIRESLASEAMHYLGIPTTRALSIVTSDSPVYRETAEPGAMLMRVAPSHLRFGHFEHFYYRRESEKVRQLADFAIRHYWSHLADDEDKYRLWFSDVVARTASLIAQWQTVGFAHGVMNTDNMSLLGLTLDYGPFGFLDDYEPGFICNHSDHQGRYSFDNQPAVALWNLQRLAQTLSPFVAVDALNEALDSYQQVLLTHYGERMRQKLGFMTEQKEDNALLNELFSLMARERSDYTRTFRMLSLTEQHSAASPLRDEFIDRAAFDDWFARYRGRLQQDEVSDSERQQLMQSVNPALVLRNWLAQRAIEAAEKGDMTELHRLHEALRNPFSDRDDDYVSRPPDWGKRLEVSCSS | not soluble
MGSDKIHHHHHHMIRISNKIKTLLAMLSFVQVTSGCDATVQDIIIDTDPGVEIGNNDYYTWCKETLSVIDKDLKISGTHSYYENQDRSQVSFIWGNIFLLYTYTEGISLSKSEWSDALMNCFLNFDNYWHPNYKGIAGYATLPTSAEKVPDRFYDENGWTAIGLCDAYLATQNNSYLEKAKGALAFSLSGEDNVLGGGIYFQETFVSLPVQKNTICSAVTMLSCMKLYEITQDRQYLDAAIRINDWTVENLLDKSDNLLWDAKMVADGSVNTQKWSYNAGFMIRSWLKMYQATKDEKYLSQAKATLASSEAKWYNSINGALNDPGYFAFSIIDSWFDMYDTDKNTVWLTKAFHAINFIHNKLRDGNGRYPEHWGTPTTSNLEKYDLRFSTVAAYMYMRAANYKRILND | not soluble
MGSDKIHHHHHHMQWLTFQWLEFIREYREKAKHNLSNSGMPEPDLKSLGIDTSYEHYLDAAGEVEYRFTEALSRRLRVDQDLIIPTVGGTEAIFIALSHLSSVSKRIHVPLPEYEPMFLVPESLGIETSKIESKVMPGRISKNESIAMTLPNNPTAQYSDRISLLDNVIHSEGLIYIDETFRDFLPSGTRPTLFDGSETMVVSGTMTKFYGLSNLRTGWIISSEHNVAGMRRIKDLTSINNASFSLYIAAQAIQKWNYFKEAEDNLINKNLRVAREYLEGLPGISYKEPEGAPFIFLSYSKNIESVKLAKLAVERYGILFAPGSFFGEEHHIRVCLTSNKPEEDFNVLKEFLKKEAV | not soluble
MCMSLRESAAAADAGAGPLAGSARDLLAQWNGGEDVWVFAYGSLIWRPDFAWQERRLATVRGYHRSLLWSHDHRGSPDNPGLVFGLDRGGCCRGVAFRVAGRDVPEVFQALWHREMSGGAYKPRWLRCHTGQAPVRGLAFVPDRRCRHYAGALSDELLIRAVRQAVGRSGACLDYVRETHRALNEHGIVDWRLGALVDRLAQPLEHHHHHH | not soluble
MGSDKIHHHHHHMQDVTGRALVMMESATQGQQGIAMDLVQEAFIALHKSYADRSTEEWYPLFYTILNNKLQDWRRKEARRANPFSFFKKVSLDNDDEEIIDIVDEKAINPADFLDQAVTIEEIQEAIAKLPVRQQQAFMLRAWEGFDTHTTAQIMNCTEGSVKTHYHRAIQGLREYLAHLNPMGGSNES | not soluble
MAPGQLALFSVSDKTGLVEFARNLTALGLNLVASGGTAKALRDAGLAVRDVSELTGFPEMLGGRVKTLHPAVHAGILARNIPEDNADMARLDFNLIRVVACNLYPFVKTVASPGVTVEEAVEQIDIGGVTLLRAAAKNHARVTVVCEPEDYVVVSTEMQSSESKDTSLETRRQLALKAFTHTAQYDEAISDYFRKQYSKGVSQMPLRYGMNPHQTPAQLYTLQPKLPITVLNGAPGFINLCDALNAWQLVKELKEALGIPAAASFKHVSPAGAAVGIPLSEDEAKVCMVYDLYKTLTPISAAYARARGADRMSSFGDFVALSDVCDVPTAKIISREVSDGIIAPGYEEEALTILSKKKNGNYCVLQMDQSYKPDENEVRTLFGLHLSQKRNNGVVDKSLFSNVVTKNKDLPESALRDLIVATIAVKYTQSNSVCYAKNGQVIGIGAGQQSRIHCTRLAGDKANYWWLRHHPQVLSMKFKTGVKRAEISNAIDQYVTGTIGEDEDLIKWKALFEEVPELLTEAEKKEWVEKLTEVSISSDAFFPFRDNVDRAKRSGVAYIAAPSGSAADKVVIEACDELGIILAHTNLRLFHH | soluble
SMGLPPGWDEYKTHNGKTYYYNHNTKTSTWTDPRMSS | soluble
TQPPQPDAQSPYSKRYDPTKDYPLSSPAGGMNNFSDVEPRGRLDEKAATDRADALAKNAQRNIEQKGIDSPEQYGRNYKQGTPFGERVKNLGEDIGSSANELGEGVVKGTQRGIENLKGNTQNAAEDATKNVQRGAEDAGRNVRRTADDAGNAVKRAVD | not soluble
MQDIWRLPATELADLVRSRRVSAREVAEAALHRLDAVNPAINAVVDHKADDALTQADAVDAAFAKGETPGVLAGVPVTVKVNVDQQGFATTNGVTLQRDWIAKTNNPVVDNLRKAGAVIIGRTNTPAFSYRWFTSNKLHGETLNPRDPSITPGGSSGGAAAAVAAGIGAIAHGTDIAGSVRYPAYACGVHGLRPTIGRVAAFNASSPERPICPQISAVSGPLARTIADVRLGLQALAQPDARDPWWVPAPLDGPPRDKRAALCIAPDDLAVVRAVRDALKDAARRLEAAGWVVDEIASTPPLREAAELQAQFWLGDGYQAMLDAAEREGDEGALACLHGNRDKAIGDLASYSKLLTRRATLTRDWQTFFETYAVLLTPVCGELPFPQRLDLKDEESFKRVWAAQMPQVGLPFMGLPALTVSTGMVGRVPVGVQVVSGRYREDLCLLAGEAIEA | not soluble
MLFDMDGVLFDSMPYHAEAWHKTMKAHGLNLSREEAYMHEGRTGAGTINIVCQRQLGRDATQEEIESIYLEKSIEFNKHPQAERMPGAWELLQKIKAEGIIPTVVTGSGQASLLDRLEHNFPGMFRQELMVTAFDVKYGKPNPEPYLMALEKGGLKPNEAIVIENAPLGVEAGHKAGIFTIAVNTGPLNGEILLNAGADLLFPSMQALCESWEKLVRLLH | not soluble
MYNKDDVLKQADNIANKIKNLDTIKTYQQIEAQIHQNQTIKTKMDMLKKHQKQAVNFQNYGKQNALEQSEHTIQSIEAEINTLPIVEQFQTSQYEANQLLKMFVSTMETRLNDHNKAKHSDLEHHHHHH | not soluble
MGSDKIHHHHHHMSVFLRNAWYMACWSHEVPEGGFLARRLLDKPWVIWRKADGTPVIMADRCPHRFVPLSRGQRDGDMMRCGYHGLAFSSSGGCVHNPFTDEALPLARVEVLPVVEKHTGLWFWPGDADRADPALIPDFGFLDVERPLHRGHLKMDAGYELVTDNLMDLSHAEFIHRDSFGVNGSLLTCGQHEVVQDEGGAIWNNWTMPDSEPPSWAVAMLPEGARTDQWLHMRWNAPSCLALFLGLARSGTDRKDMVVPPMADPHILTPETVTSTHYFYTHEPTPEAHALLEKAFLEEDHPMLHAQQEAMGSADFWDLRPVVLPSDAGAIRVRRRMMQLRRAEAGLEEEAAA | not soluble
MGSDKIHHHHHHMSKIEELPPSDTDDHSYSSKPGDVFLAFVDAPVKETDDILVEDSFIGGEPKWLHPDSEPPAELLKCGACKSADNMKLLLQAFSPLDDEQMSAIQQRLGINNMSYINPQDDRVLYVFLCTECQRKGNSVRCIRGVKKNKNVDSLSEKMASTSLEKDFQINPFDLSNNSDSKCNAFSSNPFGGANANPFGADSINSNISQSKDEGKKKESATVSAKTARKLHDLQKDKEYDGNKCFKSCLLYVEEETFKNKKPAHLQLPKNLKIDKEALDLTGDEDLEKDPIKLDPRTEKLSKFLDDDTFQKFQEVVGYNPLQVLRYDLGGKPLLYAETKVDILSTVPRPGYNPSSQRIFEMQLMPKMIFDLEEVVSVDNGMEWGTILVFTDVENYMPEFDEHGVGYVEECVKVQWESRT | not soluble
MLRVVEVCWRESHMKVLAINSSPRMDKGNTALILNPFLEGMKEAGAEVELFYTKKLKISPCTGEFNCWLKTPGKCYQNDDMNILYPRIDAADVIVFATPVYVDGVTGQMKNFIDRMLPRVEPFVELRDGHCRHPVRGGPKALKFVLVSNCGFWEMDNFDSLLVFMKAFCKNASTEFAGALLRPHGEALSSMLEMGAPIDDVFEAAREVGRQLVKEGKMSQETLDIVSRELLPKEMYIQIANQTFRQCLESLDRLEHHHHHH | not soluble
MSLTLRIALFGAGRIGHVHAANIAANPDLELVVIADPFIEGAQRLAEANGAEAVASPDEVFARDDIDGIVIGSPTSTHVDLITRAVERGIPALCEKPIDLDIEMVRACKEKIGDGASKVMLGFNRRFDPSFAAINARVANQEIGNLEQLVIISRDPAPAPKDYIAGSGGIFRDMTIHDLDMARFFVPNIVEVTATGANVFSQEIAEFNDYDQVIVTLRGSKGELINIVNSRHCSYGYDQRLEAFGSKGMLAADNIRPTTVRKHNAESTEQADPIFNFFLERYDAAYKAELATFAQGIRDGQGFSPNFEDGVIALELANACLESAQTGRTVTLNPANEGHHHHHH | soluble
SQELTLSPGPAKLTPTLDPTHRMELILSTSPAELTLDPACQPKLPLDSTCQPEMTFNPGPTELTLDPEHQPEETPAPSLAELTLEPVHRRPELLDACADLINDQWPRSRTSRLHSLGQSSDAFPLCLMLLSPHPTLEAAPVVVGHARLSRVLNQPQSLLVETVVVARALRGRGFGRRLMEGLEVFARARGFRKLHLTTHDQVHFYTHLGYQLGEPVQGLVFTSRRLPATLLNAFPTAPSPRPPRKAPNLTAQAAPRGPKGPPLPPPPPLPECLTISPPVPSGPPSKSLLETQYQNVRGRPIFWMEKDI | soluble
MAHHHHHHMKKLGLVLDAAAVEKSQRDLQSYQIKNNNSLQLRAFLLNESGMFTKDGRKLPGSVTKEVIDDTSKRIIGRGASGAVYFAKLKDGGPVALKHIPITSKPHRDEVDRELSFFSSQSNSPFVMKNLGAFWDSEEAAIVIPMEWMAYTLKDLSCFWEGIEETMLRDIFFQVVSGLVYLHDTKRVIHRDLKPSNLLIRDDGYVKIGDFGVSKLVHTLDVSSTYVGTMYFMAPERLEQGAYGFNSDVWSLGLTVLSTITGKNPWAPPEEMNIFQLLGRIAGDTTPTLPEKPAYSEEARDFVKKCLVRDPQERPSTAELLKHPFFKGCTEASAVANVKQGVDYMTRLINSDAKKNGLLKRSPEDVTKEVNAKLDRLGDL | soluble
MNPFTYSKPTDITAAVNLSGPATRFIAGGTNLLDLMKENVATPEHLIDITGLPLREVSETASGGLMIGALVSNADLAYHPLIEARYPLLSKAVLAGASPQLRNMASTGGNLLQRTRCYYFYDTGVPCNKREPGSGCPAREGLNRIHAILGASDECVATHPSDMCVALAALEAVVHVEGRAGRRTIEFADFHRLPGDAPQRDNQLADDELIIAVELPAQGFASHNAYLKIRDRASYAFALISVAAAIDLDGDVVRDVRLALGGVAHKPWRDKAVEALLIGKPVTREHFAAAADAMLEDAKPLEHNGFKVRLARRAIIRALSDAATGGSAL | not soluble
